Measured values: patent US10246721B2, “Sugar transporters” (CARNEGIE INSTITUTION OF WASHINGTON, priority 2009, dated 2019)
Entries after “also recorded” stand apart in the source; their conditions may differ.

T1: SWEET1 (Arabidopsis thaliana, UniProt Q8L9J7)
T1 sequence (Q8L9J7 1-247): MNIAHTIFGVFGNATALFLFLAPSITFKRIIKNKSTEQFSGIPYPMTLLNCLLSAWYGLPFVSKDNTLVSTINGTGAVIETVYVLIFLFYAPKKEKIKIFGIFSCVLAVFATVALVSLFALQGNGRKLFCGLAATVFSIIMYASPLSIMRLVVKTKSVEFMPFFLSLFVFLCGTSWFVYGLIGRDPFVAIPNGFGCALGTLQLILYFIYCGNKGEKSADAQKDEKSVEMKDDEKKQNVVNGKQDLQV

T2: SGLT1 (Homo sapiens, UniProt P13866)
T2 construct: The ORF of SGLT1 (Invitrogen, Carlsbad, Calif.) was amplified by PCR and cloned into pCR2.1-TOPO; host or cells: Xenopus laevis oocytes injected with cRNA from pOO2
T2 sequence (P13866 1-664): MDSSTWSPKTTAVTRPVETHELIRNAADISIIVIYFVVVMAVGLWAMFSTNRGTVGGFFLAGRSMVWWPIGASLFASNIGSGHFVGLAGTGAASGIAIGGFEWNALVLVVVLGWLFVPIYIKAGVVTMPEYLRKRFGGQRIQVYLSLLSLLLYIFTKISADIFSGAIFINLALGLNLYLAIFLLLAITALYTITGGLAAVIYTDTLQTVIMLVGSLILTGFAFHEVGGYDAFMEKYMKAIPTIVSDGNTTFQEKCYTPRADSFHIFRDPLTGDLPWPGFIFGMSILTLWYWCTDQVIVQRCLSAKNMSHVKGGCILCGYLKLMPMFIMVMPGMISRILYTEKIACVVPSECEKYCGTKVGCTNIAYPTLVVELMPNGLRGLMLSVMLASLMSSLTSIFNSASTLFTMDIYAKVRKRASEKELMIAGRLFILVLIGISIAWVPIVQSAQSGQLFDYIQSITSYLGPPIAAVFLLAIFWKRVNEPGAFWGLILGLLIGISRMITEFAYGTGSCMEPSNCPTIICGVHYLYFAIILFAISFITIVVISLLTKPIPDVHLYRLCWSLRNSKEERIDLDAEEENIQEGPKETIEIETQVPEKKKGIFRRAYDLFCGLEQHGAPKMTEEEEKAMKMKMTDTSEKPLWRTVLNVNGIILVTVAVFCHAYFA


Tests used:
SWEET1 [1] = target: T1, SWEET1; assay: Inhibition of SWEET1-mediated glucose uptake in yeast EBY4000 by competing sugars; format: cell-based; parameters: SWEET1, SWEET8 and OsSWEET11 ORFs were amplified by RT-PCR using specific primers from Arabidopsis and rice, respectively; conditions: 5 mM D-glucose; competitor at 10-fold excess (50 mM)
Protocol: Competitors were added at 10-fold excess (final concentration 50 mM). Relative activity was normalized to D-glucose uptake rate [100%]. Data are mean±S.D.
Yeast uptake. Yeast cells were grown in SD medium supplemented 2% maltose and auxotrophic markers. Cells were harvested at OD600 0.5-0.7 by centrifugation, and washed twice in ice-cold distilled water. Cell pellets were weighed after the supernatant had been removed. Cells were resuspended 5-10% (w/v) in 40 mM potassium phosphate buffer, pH 6.0. Cells were pre-incubated in potassium phosphate buffer for 5 min at 30° C. For each reaction, 330 μl pre-warmed buffer containing 20 mM glucose (0.55 μCi D-[U-^14C] glucose; 590 KBq/μmol, Amersham Pharmacia Biotech Inc.) was added to an equal volume of cells. 120 μl aliquot were withdrawn and transferred to the ice-cold water. Cells were harvested by vacuum filtration onto a glassfiber filters (GF/C, Whatman), and washed twice in 10 ml ice-cold water. Filters were transferred to scintillation vials containing 5 ml of Ultima Gold XR Scintillator liquid (Perkin Elmer). Radioactivity taken up by the cells was measured by liquid scintillation spectrometry. To determine substrate specificity for SWEET1 compared to D-glucose, a ten-fold excess of competing sugar species was used. To determine the pH-dependence of SWEET1 activity, 40 mM potassium phosphate uptake buffer at specified pH was used. […]

SWEET1 [2] = target: T1, SWEET1; assay: FRET glucose sensor FLIPglu600μΔ13V co-transfected with SWEET1 in HEK293T cells, cytochalasin B; format: cell-based; parameters: SWEET1, SWEET8 and OsSWEET11 ORFs were amplified by RT-PCR using specific primers from Arabidopsis and rice, respectively; expressed in transfected cells; host or cells: HEK293T; conditions: 20 μM cytochalasin B
Protocol: Similar results were obtained for several Arabidopsis paralogs of this gene family.
FRET analysis. Cell culture, transfection, image acquisition and FRET analysis were performed as described previously.
To identify novel glucose transporters from the reference plant Arabidopsis, genes encoding uncharacterized polytopic membrane proteins from the plant membrane protein database Aramemnon, available on the internet at “aramemnon.botanik.uni-koeln.de”,—were screened using a mammalian expression system. Candidate genes were coexpressed with a high-sensitivity FRET glucose sensor (i.e. FLIPglu600μΔ13V) in human embryonic kidney HEK293T cells, which are characterized by low endogenous glucose uptake activity. […] To determine whether SWEET1 can also mediate efflux from the cytosol, we expressed the FRET glucose sensor FLIPglu600μΔ13V^ER in the lumen of the endoplasmic reticulum (ER; FIG. 9B). Topologically, uptake across the plasma membrane (PM) is initiated from the extracellular side of the carrier, while ‘export’ to the ER is initiated from the cytoplasmic side of the transporter (FIG. 9C). […] SWEET1 may thus function as a glucose uniporter, for which the direction of transport depends only on the glucose gradient across the membrane. […]

SGLT1 = target: T2, SGLT1; assay: Coexpression with SGLT1 in Xenopus oocytes, glucose accumulation; format: cell-based; conditions: coexpressed with SGLT1
From the text: Data are mean±SE, n=7. Inset indicates concentrative uptake of glucose by SGLT 1 and glucose efflux (‘leak’) caused by OsSWEET11.
All experiments were repeated independently at least 6 times. Error bars are means±SD.
Human SGLT1 sodium glucose cotransporter (“S”) which has been previously shown to be a secondary active glucose importer. SGLT1 is […] expressed in Xenopus oocytes and can mediate uptake of 14C labelled glucose into the oocyte. When RAG1AP1 (“R”) is coexpressed, less uptake is seen in the oocytes. This is compatible with a glucose ‘leak’ due to RAG1AP1 activity that prevents high accumulation of glucose in the SGLT1 expressing cells.
(§1) Tracer uptake in Xenopus oocytes. The assay was performed with modification as described in Detaille et al. Two days after injection, groups of 7 to 16 oocytes were transferred into tubes containing 200 μL MBS and 1 mM D-glucose (4 μCi/ml D-[^14C(U)]-glucose; 319 mCi/mmol, PerkinElmer). After incubation at 20° C. for one hour, and the cells were washed by adding 1 ml ice-cold MBS. Incubation was stopped by adding ice-cold MBS buffer. The ooctyes were washed three times in ice-cold MBS buffer. The cells were solubilized with 100 μl 1% (w/v) SDS, and measured individually.
The ORF of SGLT1 (Invitrogen, Carlsbad, Calif.) was amplified by PCR and cloned into pCR2.1-TOPO (Invitrogen). […]

Xenopus oocytes [3] = assay: Tracer [14C]-glucose uptake in Xenopus oocytes; format: cell-based, Xenopus laevis; conditions: 1 mM D-glucose, 1 h
Protocol: Xenopus oocytes isolation and RNA injection. After linearization of the pOO2 plasmids with MluI, capped cRNAs were synthesized in vitro by SP6 RNA polymerase using mMESSAGE mMACHINE kit (Ambion, Inc., Austin, Tex.). Xenopus laevis oocytes were kindly provided by M. Goodman (Stanford University). Microinjection was carried out as described by Ballatori et al.. 25 ng to 50 ng of each cRNA was injected into healthy-looking oocytes (RNAse-free water was used as control). The injected oocytes were then maintained at 18° C. in modified Barth's saline (MBS: (in mM) 88 NaCl, 1 KCl, 2.4 NaHCO3, 0.82 MgSO4, 0.33 Ca(NO3)2, 0.41 CaCl2, and 20 HEPES-Tris, pH 7.5) with 100 μM gentamycin, 100 U/ml penicillin and 100 μM streptomycin solution for 2-3 d. The incubation buffer was changed once per day.
as §1, with “individually. […]” for “individually.”

Xenopus oocytes [4] = assay: Tracer efflux assay in Xenopus oocytes injected with [14C]-glucose; format: cell-based, Xenopus laevis; conditions: S.E., n>7
Protocol: 50 nl of 10 mM radiolabeled glucose (0.18 μCi/μl) were injected and radiotracer efflux was measured over time. Data are mean±SE (n>10 cells).
Tracer efflux assay in Xenopus oocytes. Efflux was measured essentially as described. Three days after cRNA injection, oocytes were injected with 50 nl solution containing 10 mM D-glucose with 0.18 μCi/μl D-[^14C(U)]-glucose. Cells were immediately washed once in MBS. At defined time points, the reaction buffer (950 μl) was removed for scintillation counting and replaced with fresh medium. Finally, the oocytes were solubilized with 1% SDS and analyzed for radioactivity.
The ORF of SGLT1 (Invitrogen, Carlsbad, Calif.) was amplified by PCR and cloned into pCR2.1-TOPO (Invitrogen). The SGLT1 ORF was excised with EcoRI/XhoI and cloned into the corresponding sites in pOO2. The splice variant RAG1AP1-1 in pDNR-LIB (Clone ID: 4076256, Open Biosystems, Huntsville, Ala.) was restricted with EcoRI/XhoI and cloned into pOO2. RAG1AP1-2 in pCMV-SPORT6 (Clone ID: 3896154, Open Biosystems, Huntsville, Ala.) was transferred into the pOO2-GW (D. Loqué, unpublished) by in vitro LR recombination (Gateway). RAG1AP1-3aa was mutated to Y216A, L218A, L219A (putative internalization motifs) by site-directed mutagenesis and cloned by in vitro BP recombination in pDONR221-f1 and further mobilized into pOO2-GW by LR reaction. […]

[5] = 14C glucose uptake data for C. elegans homologs (FIG. 42); format: cell-based; conditions: 1 mM and 10 mM glucose
From the text: FIGS. 42A and 42B show the 14C glucose uptake data for five of the C. elegans homologs.
At least 3, 4 nd 5 are active. (code for names of C elegans genes:Ce1: C06G8.1; Ce2: K06A4.4; Ce3: Y39A1A.8; Ce4: K11D12.5; Ce5: K02D7.5; (worm mutants of Ce5: K02D7.5 show increased fat accumulation, consistent with reduced efflux of glucose from these cells).

| Molecule | effect of coexpression on SGLT1-mediated glucose accumulation in oocytes (SGLT1) | [14C]-glucose uptake into Xenopus oocytes (Xenopus oocytes [3]) | further results |
| --- | --- | --- | --- |
| CO[C@@H]([C@H](O)[C@H](O)CO)[C@@H](O)C=O [3-O-methylglucose] | – | – | inhibition of SWEET1-mediated glucose uptake by competitor sugar (SWEET1 [1]): marginally inhibited |
| C=C1[C@@H](C)[C@H]2[C@H](Cc3ccccc3)NC(=O)[C@]23OC(=O)/C=C/[C@H](O)CCC[C@@H](C)C/C=C/[C@H]3[C@@H]1O [cytochalasin B] | – | – | effect of cytochalasin B on SWEET1 (GLUE1)-mediated glucose uptake (SWEET1 [2]): insensitive; also recorded: did not affect; also recorded: insensitivity |
| RAG1AP1: human homolog of the SWEET sugar transporters (SLC50) (protein) MEAGGFLDSLIYGACVVFTLGMFSAGLSDLRHMRMTRSVDNVQFLPFLTTEVNNLGWLSYGALKGDGILIVVNTVGAALQTLYILAYLHYCPRKRVVLLQTATLLGVLLLGYGYFWLLVPNPEARLQQLGLFCSVFTISMYLSPLADLAKVIQTKSTQCLSYPLTIATLLTSASWCLYGFRLRDPYIMVSNFPGIVTSFIRFWLFWKYPQEQDRNYWLLQT | less uptake; also recorded: counteract secondary active glucose accumulation; also recorded: counteracted SGLT1-mediated glucose accumulation | unable to mediate glucose accumulation | % glucose released within 2 min (Xenopus oocytes [4]): 5.27±0.29% |
| CeSWEET1: C. elegans SWEET homolog (protein, UniProt O45102 1-299, looked up) Sugar transporter SWEET1: MLEVVLQVLSISAITTTIALFFCGIPICMQIRRQGAVGDISGVPFLMGVLGGSFWLRYGLLKMDYVMIIVNVVGVACMAFYCVFFLIYSLPKKTFTCQLILVTSTIGGMVLWIALKPNLDYLGVICMTFNIMNFGAPLAGLGVVLKNREVSTLPLPMCVANFLVSSQWCLYGNLVSDIYIIIPNGIGMFLAIVQLALFVVLPIRENEKSPLEKLASWFTGRDSKVKDLERGDCIVSSPPSSPQKVPNETRSDVEDKFDKLMAETSSTIPSDSRRGSMGSPPSYKSRSSSDPDLSSIQSP | counteract secondary active glucose accumulation | mediates glucose uptake; also recorded: weak, but significant glucose uptake | 14C glucose uptake activity [5]: active |
